# Experimental data published in US20230121197A1, “ANTIBODIES SPECIFICALLY BINDING THE CARBOXYMETHYLATED CATALYTIC SUBUNIT OF PROTEIN PHOSPHATASE 2A” (Medizinische Universität Wien, priority 2020, published 2023).
# B1: 7C10-C5: α-carboxymethylation specific mouse monoclonal IgG1 antibody from single clone hybridoma 7C10-C5 (DSM ACC3350) (antibody)
# heavy: MYRMQLLSCIALSLALVTNSDVQLQESGPGLVKPSQSLSLTCSVTGYSITSGYYWNWIRQFPGNKLEWMGYISYDGSNNYNPSLKNRISITRDTSKNQFFLKLNSVTTEDTATYYCAGRFAYWGQGTLVTVSAAKTTAPSVYPLAPVCGDTTGSSVTLGCLVKGYFPEPVTLTWNSGSLSSGVHTFPAVLQSDLYTLSSSVTVTSSTWPSQSITCNVAHPASSTKVDKKIEPRGPTIKPCPPCKCPAPNLLGGPSVFIFPPKIKDVLMISLSPIVTCVVVDVSEDDPDVQISWFVNNVEVHTAQTQTHREDYNSTLRVVSALPIQHQDWMSGKEFKCKVNNKDLPAPIERTISKPKGSVRAPQVYVLPPPEEEMTKKQVTLTCMVTDFMPEDIYVEWTNNGKTELNYKNTEPVLDSDGSYFMYSKLRVEKKNWVERNSYSCSVVHEGLHNHHTTKSFSRTPGK
# light: MDMRVPAQLLGLLLLWLSGARCDVLMTQTPLSLPVSLGDQASISCRSSQSIVHSNGNTYLEWYLQKPGQSPKLLIYKVSNRFSGVPDRFSGSGSGTDFTLKINRVEAEDLGVYYCFQGSHVPWTFGGGTKLEIKADAAPTVSIFPPSSEQLTSGGASVVCFLNNFYPKDINVKWKIDGSERQNGVLNSWTDQDSKDSTYSMSSTLTLTKDEYERHNSYTCEATHKTSTSPIVKSFNRNEC
# modifications: Amino acid sequence of the recombinant 7C10-C5 heavy chain; Amino acid sequence of the recombinant 7C10-C5 light chain
# B2: 7C10-C5 monoclonal antibody (antibody, V domains shown)
# VH: DVQLQESGPGLVKPSQSLSLTCSVTGYSITSGYYWNWIRQFPGNKLEWMGYISYDGSNNYNPSLKNRISITRDTSKNQFFLKLNSVTTEDTATYYCAGRFAYWGQGTLVTVSA
# VL: DVLMTQTPLSLPVSLGDQASISCRSSQSIVHSNGNTYLEWYLQKPGQSPKLLIYKVSNRFSGVPDRFSGSGSGTDFTLKINRVEAEDLGVYYCFQGSHVPWTFGGGTKLEIK
# notes: Used as hybridoma culture supernatant (ELISA, Western blot, IHC) or at 50 µg/mL (SPR); also called 7C10 X63; clone 7C10-C5
# Key:
# [1] = target: T1, HA-tagged yeast PP2Ac (PPH21) (Saccharomyces cerevisiae, UniProt P23594); test: Western blot of yeast BY4741 strain lysates (wt, ppe1Δ, ppm1Δ, NaOH); assay type: binding
# T1 construct: expressed in transfected cells; host or cells: yeast BY4741 (wildtype, ppe1Δ, ppm1Δ)
# Source text: Yeast strain BY4741 expressing HA-tagged yeast PP2Ac (PPH21) was used as a background. Of note, the 6 C-terminal amino acids of mammalian/human PP2Ac are identical to the yeast PP2A catalytic subunit PPH21. The BY4741 wildtype (WT) strain contained carboxymethylated PP2Ac and non-carboxymethylated PP2Ac. The BY4741 ppe1Δ strain contained high levels of carboxymethylated PP2Ac because the ppe1 gene was deleted. The BY4741 ppm1Δ strain lacked carboxymethylated PP2Ac because the ppm1 gene was deleted. Said yeast strains were further used for the characterization of monoclonal antibodies, i.e. 7C10-C5, as described further below. […]
# Yeast cells were grown at 30° C. to exponential growth phase in drop-out complete medium (2.3 g/l Bacto yeast nitrogen base [Difco, 233520], 20 mg/l adenine, 20 mg/l L-arginine, 15 mg/l L-tyrosine, 15 mg/l L-isoleucine, 25 mg/l L-phenylalanine, 50 mg/l L-glutamic acid, 50 mg/l L-aspartic acid, 100 mg/l L-threonine, 200 mg/l L-serine, 75 mg/l L-valine, 75 mg/l L-methionine, 90 mg/l L-lysine, 20 mg/l uracil, 30 mg/l L-histidine, 0.05 M ammoniumsulfate) lacking L-leucine and containing 2% w/v glucose. Yeast cells were collected by centrifugation at 3,500 rpm at 4° C. in a Beckmann GS-6R centrifuge, washed with ice-cold water and the optical density at 600 nm (0D^600) was measured in a Hitachi U-2000 spectrophotometer. […]
# [2] = target: T2, PP2Ac C-terminal peptide meL309, ac-HVTRRTPDYFL-CH3 (α-carboxymethylated) (human, SMILES …); test: ELISA (FIG. 4)
# T2 construct: also called Y307-meL309; mePP2Ac
# T2 peptide: Ac-HVTRRTPDYFL-OMe
# Description: Nunc Medisorp 96-well ELISA flat-bottom plates were coated with peptides L309 (ac-[…]) (SEQ ID NO:18), meL309 (ac-[…]-CH₃) (SEQ ID NO:18) or amL309 (ac-[…]-NH₂) (SEQ ID NO:18) at 2 μg/ml in TBS at 4° C. over-night. After washing once with TBS, the wells were incubated with 2% BSA in TBS for 1 h at RT. After washing once with TBS, the wells were incubated with single clone hybridoma cell culture supernatant clone 7C10-C5 1:50 (˜1 μg/ml) in 1% BSA/TBS for 1 h at RT. After washing twice with TBS, wells were incubated with anti-mouse HRP-coupled secondary antibody for 1 h at RT, followed by washing 3× in PBS. Bound antibodies were detected by colorimetric reaction with 3,3′,5,5′-Tetramethylbenzidine as substrate, and absorbance was measured at 450 nm. Values were normalized to meL309 which was set to 1. Average and standard deviation of N=8 experiments are shown. Statistical significance was assessed using ANOVA followed by Tukey's HSD as a post-hoc test. P values are indicated with *, **, ***, which correspond to values of <0.05, <0.01, and <0.001. […]
# T1 sequence (P23594 whole entry): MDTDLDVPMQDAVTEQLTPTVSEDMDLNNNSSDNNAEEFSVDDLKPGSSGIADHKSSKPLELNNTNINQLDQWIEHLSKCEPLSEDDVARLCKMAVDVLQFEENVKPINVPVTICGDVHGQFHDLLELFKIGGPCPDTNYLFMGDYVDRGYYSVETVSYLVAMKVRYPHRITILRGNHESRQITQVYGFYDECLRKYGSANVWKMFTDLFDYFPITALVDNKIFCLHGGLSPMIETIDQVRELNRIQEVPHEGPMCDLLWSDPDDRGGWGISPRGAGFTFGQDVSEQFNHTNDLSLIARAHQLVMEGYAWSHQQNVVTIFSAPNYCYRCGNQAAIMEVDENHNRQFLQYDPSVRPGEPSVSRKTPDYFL
Molecule,detection of PP2Ac in ppe1Δ (carboxymethylated) versus ppm1Δ / NaOH treated (non-carboxymethylated) lysates [1],fold stronger binding than to the amidated C-terminal part of PP2Ac (ELISA) [2]
B1,only detected carboxymethylated PP2Ac,–
B2,detected PP2Ac only in the BY4741 ppe1Δ strain,6.15 fold
